From patent US20190322750A1

Molecular target: T1, ITGA6
T1 sequence (P23229 whole entry, species assumed, looked up): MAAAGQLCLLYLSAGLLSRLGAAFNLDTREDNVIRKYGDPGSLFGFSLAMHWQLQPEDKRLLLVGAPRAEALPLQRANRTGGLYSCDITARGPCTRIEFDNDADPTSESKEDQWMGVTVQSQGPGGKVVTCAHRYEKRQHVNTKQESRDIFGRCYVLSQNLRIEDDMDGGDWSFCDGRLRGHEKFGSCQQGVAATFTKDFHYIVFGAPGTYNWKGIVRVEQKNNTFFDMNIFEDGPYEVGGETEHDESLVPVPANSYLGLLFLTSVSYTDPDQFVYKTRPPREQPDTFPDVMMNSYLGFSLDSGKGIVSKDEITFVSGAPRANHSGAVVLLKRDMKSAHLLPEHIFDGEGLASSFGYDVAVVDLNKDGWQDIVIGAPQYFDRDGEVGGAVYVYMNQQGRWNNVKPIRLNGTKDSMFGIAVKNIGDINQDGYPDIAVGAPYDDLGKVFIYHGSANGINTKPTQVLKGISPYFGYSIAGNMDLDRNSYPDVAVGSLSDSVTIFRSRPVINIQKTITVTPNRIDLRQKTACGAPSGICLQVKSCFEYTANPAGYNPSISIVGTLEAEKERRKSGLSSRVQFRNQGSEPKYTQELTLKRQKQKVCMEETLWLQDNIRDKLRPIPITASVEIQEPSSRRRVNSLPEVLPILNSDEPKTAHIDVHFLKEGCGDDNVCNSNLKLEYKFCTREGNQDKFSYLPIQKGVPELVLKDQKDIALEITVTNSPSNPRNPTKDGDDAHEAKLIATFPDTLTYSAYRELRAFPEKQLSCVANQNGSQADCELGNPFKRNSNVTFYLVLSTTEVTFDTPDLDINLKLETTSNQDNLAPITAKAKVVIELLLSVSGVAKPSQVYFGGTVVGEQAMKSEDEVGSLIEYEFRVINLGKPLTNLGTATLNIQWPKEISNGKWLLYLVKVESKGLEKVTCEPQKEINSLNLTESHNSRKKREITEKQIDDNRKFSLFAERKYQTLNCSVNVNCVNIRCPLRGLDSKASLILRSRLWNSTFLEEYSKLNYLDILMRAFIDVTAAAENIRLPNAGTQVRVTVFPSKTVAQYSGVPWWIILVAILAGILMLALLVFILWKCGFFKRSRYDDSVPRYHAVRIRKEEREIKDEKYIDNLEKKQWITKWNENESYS
Assay: ELISA on coated antigen, column ITGA6

Avelumab (antibody), sequence (VH): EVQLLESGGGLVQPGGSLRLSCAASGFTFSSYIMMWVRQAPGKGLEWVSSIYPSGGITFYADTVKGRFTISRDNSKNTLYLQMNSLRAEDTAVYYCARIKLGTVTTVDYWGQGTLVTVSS
Avelumab (antibody), sequence (VL): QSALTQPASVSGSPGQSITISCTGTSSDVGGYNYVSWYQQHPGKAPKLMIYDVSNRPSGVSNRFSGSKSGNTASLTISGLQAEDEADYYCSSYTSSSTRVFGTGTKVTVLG

absorbance at 490 nm: 0.6
Substance: Avelumab (antibody)
